From patent US8853165B2, “Peptide having the ability to regenerate bone tissue and for binding to apatite” (Nano Intelligent Biomedical Engineering Corporation Co., …, priority 2010, dated 2014)
Where “and” joins values, the source holds several entries; their conditions need not be identical. Equal values may be shown once. Residues, ends and D or L forms follow the SMILES beside them. *: point of attachment. FITC = O=C1OC2(c3ccc(O)cc3Oc3cc(O)ccc32)c2ccc(NC(=S)*)cc21

Tests used:
rabbit calvarial defect [1] = test: In vivo stability of FITC-labeled peptide on bone mineral grafted into calvarial defect (confocal microscope, blood fluorometer); settings: 10 mg and 20 mg bone mineral grafted, blood before and 1, 3, 7, 14, 21, 28 days after graft
Experimental: In order to test in vivo stability, 10 equivalents of fluorescein isothiocyanate (FITC) was allowed to bind to the N-terminus by using triethylamine (1 ml per 1 g of resin) at the time of preparing the peptide of SEQ ID NO: 40. The peptide synthesis was confirmed by measuring the molecular weight thereof through MALDI-TOF.
The peptide of SEQ ID NO: 40, labeled with FITC, was precipitated in the bovine bone mineral (OCS-B, NIBEC). The resultant bone mineral was grafted into the rabbit calvarial defect, and then scarified after 4 weeks. After that, the bone mineral grafted into the calvarial defect was observed by using a confocal microscope (Olympus, Japan). The bone mineral with a binding peptide of SEQ ID NO: 40, labeled with FITC, in 10 mg and 20 mg was grafted into the rabbit calvarial defect. The blood was taken before the graft and 1 day, 3 days, 7 days, 14 days, 21 days, and 28 days after the graft, and then it was determined by using the Fluorometer whether or not the peptide was freed into the systemic blood.

[2] = Peptide release (elution) test from bone graft material in PBS at 37° C., HPLC; assay type: physicochemical, bovine; settings: for Release of Peptide from Bone Mineral: PBS, 37° C., Lot Nos. 1-3
Experimental: 1200 mg of the peptide prepared in Example 1 was dissolved in 1 mL of tertiary distilled water, and then 4 g of bovine bone mineral (OCS-B, NIBEC) was added thereto, followed by deposition for 24 hours and then freeze-drying.
4 g of a bone graft material with a binding peptide was input to 20 mL of PBS, and then the peptide release test was conducted at 37° C. After 7 days, 20 Ml of elution solvent that was initially introduced was completely removed, and then 20 Ml of new elution solvent was again added to proceed elution at 37° C. In the above manner, the peptide elution test was conducted for 14 days, 28 days, 56 days, 84 days, and 100 days. After completion of elution, the bone graft material was collected and the peptide content was measured.
3 g of the bone graft material with a binding peptide was precisely weighed, and then made into powder. About 2 g of the powder corresponding to 160 mg of peptide was precisely weighed, which was then input to 40 mL of Solution A as mobile phase, followed by sonication for 1 hour. After that, extraction was conducted while stirring at 37±2° C. for 24 hours, and then the upper layer of the extracted solvent was separated by centrifuging at 3000 rpm for 10 minutes and then filtration with a 0.22 μm millipore filter. 1 mL thereof was taken therefrom, and mixed with 3 mL of Solution A, which was then filtered through a 0.22 μm millipore filter, then the filtrate was used as the test liquid.
The peptide standard product was dried in the desiccator (silica gel) for 5 hours, and then 10 mg thereof was precisely weighed, which was then dissolved by the addition of Solution A as a mobile phase, and then exactly 10 mL thereof was used as a standard liquid.
The test liquid and the standard liquid each 10 μl were tested under the following operating conditions for liquid chromatography, to obtain test liquid and standard liquid peak areas, AT and AS. Amount of peptide (mg)=amount of peptide standard product (mg)×
Meter: Analytical HPLC (Shimadzu, Japan)
Column: Filled with C18-bonded silica gel with 5 μm size (length: […], inner diameter: 4.6 mm)
Mobile phase: 0.1% trifluoroacetic acid/DDW (Solution A) 0.098% trifluoroacetic acid/acetonitrile (Solution B)
Detector: UV absorption spectrometer (measurement wavelength: 230 nm)
Column temperature: Constant at approximately 40° C.

rabbit calvarial defect [3] = test: In vivo bone regeneration capacity of peptide-bound bone graft material in calvarial defect; design: species or system rabbit (NewZealand white rabbit); settings: peptide bound to bone graft material, 50 mg per 8 mm defect, 2 weeks after graft, histology
Excerpt: Each of the peptides of SEQ ID NO: 35, SEQ ID NO: 36, and SEQ ID NO: 40, prepared in Example 1, was allowed to bind to a bone graft material by the same method as Example 2, which was then grafted into the rabbit calvarial defect. The bone regeneration capacity thereof was confirmed. An 8 mm-diameter circular bone defect was formed in the calvarial region of the anesthetized rabbit (NewZealand white rabbit, specific name: cuniculus). The bone graft material and the peptide-containing bone graft material were grafted into the bone defect with 50 mg for each defect, and the periosteum and skin were doubly sutured. The animal was sacrificed 2 weeks after the graft, and the taken sample was fixed in the formaline solution. The tissue was subjected to embedding to prepare a 20 μm-thick specimen. The prepared specimen was stained with basic fuchsin and toluidine blue to produce a nondemineralized sample. The thus produced sample was observed by an optical microscope, and photographed.

CC[C@H](C)[C@H](NC(=O)[C@H](CC(=O)O)NC(=O)[C@@H]1CCCN1C(=O)[C@H](CCCNC(=N)N)NC(=O)[C@H](CCCNC(=N)N)NC(=O)[C@H](Cc1ccccc1)NC(=O)[C@H](CCCCN)NC(=O)[C@H](CCCCN)NC(=O)[C@H](CO)NC(=O)[C@H](CCCCN)NC(=O)[C@H](CO)NC(=O)[C@H](CCCNC(=N)N)NC(=O)[C@H](CC(C)C)NC(=O)CNC(=O)[C@H](Cc1ccc(O)cc1)NC(=O)[C@H](CCC(=O)O)NC(=O)[C@H](CCCNC(=N)N)NC(=O)[C@H](CO)NC(=O)[C@H](Cc1ccccc1)NC(=O)[C@H](CCC(=O)O)NC(=O)[C@H](Cc1c[nH]cn1)NC(=O)[C@@H]1CCCN1C(=O)[C@@H](NC(=O)[C@@H]1CCCN1C(=O)[C@H](CC(C)C)NC(=O)[C@@H](NC(=O)[C@H](CO)NC(=S)Nc1ccc2c(c1)C(=O)OC21c2ccc(O)cc2Oc2cc(O)ccc21)[C@@H](C)O)[C@@H](C)CC)C(=O)N[C@@H](CCC(N)=O)C(=O)N[C@@H](Cc1ccc(O)cc1)C(=O)N1CCC[C@H]1C(=O)N[C@@H](CC(=O)O)C(=O)N[C@@H](C)C(=O)N[C@H](C(N)=O)[C@@H](C)O [SEQ ID NO: 40, labeled with FITC] ({FITC}-STLPIPHEFSREYGLRSKSKKFRRPDIQYPDAT-NH2)
RFI values of blood (peptide freed into systemic blood) (rabbit calvarial defect [1]): no differences as compared with the values before the graft

NH2-STLPIPHEFSRE-YGLRSKSKKFRRPDIQYPDAT-COONH2 (H-STLPIPHEFSREYGLRSKSKKFRRPDIQYPDAT-NH2) [SEQ ID NO: 40]
Content of Peptide Remaining in Bone Mineral ([2]; after ending the 100 day elution, Lot Nos. 1, 2, 3): 9.2 mg and 9.18 mg and 9.78 mg and 9.19 mg | Release of Peptide from Bone Mineral ([2]; day 7): 0 mg | Release of Peptide from Bone Mineral ([2]; day 14): 0 mg | Release of Peptide from Bone Mineral ([2]; day 28): 0 mg | Release of Peptide from Bone Mineral ([2]; day 56): 0 mg | Release of Peptide from Bone Mineral ([2]; day 84): 0 mg | Release of Peptide from Bone Mineral ([2]; day 100): 0 mg | peak of the peptide in the elution liquid ([2]; elution test for 100 days, Lot No. 1, 2 and 3, retention time 14.196 min): not observed | bone regeneration effect (rabbit calvarial defect [3]): remarkably increased bone regeneration capacity as compared with A and B

STLPIPHEFSRE (apatite binding peptide) [SEQ ID NO: 36]
bone regeneration effect (rabbit calvarial defect [3]): smallest

YGLRSKSKKFRRPDIQYPDAT (partial peptide of bone sialoprotein) [SEQ ID NO: 35]
bone regeneration effect (rabbit calvarial defect [3]): increased bone regeneration effect as compared with A
